The target in assay [1] is CD20 (human) (UniProt P11836). The experiment in a line: cell-based or functional assay.
For assay [2], the target named is CD20 (human) (UniProt P11836). In words: flow cytometry, RCT binding to Z138 cells.
The target in assay [3] is CD20 (human) (UniProt P11836). In words: flow cytometry, RCT binding to Toledo cells. In general terms: Flow cytometry measures light scatter and fluorescence of single cells or particles in a stream.
Assay [4] has as its target CD20 (human) (UniProt P11836). In words: flow cytometry, RCT binding to SU-DHL4 cells.
In assay [5] the target is CD20 (human) (UniProt P11836). The experiment in a line: flow cytometry, RCT binding to Granta-519 cells.
A further assay concerns the target PD-1 (UniProt Q15116). In words: cell-based or functional assay.
The target of a further assay is T1, CD20 (human, UniProt P11836 1-297).
T1 construct: whole, on cells; Endogenous CD20 on lymphoma cell lines; also called CD20 on CD20-expressing cell lines (Raji, Ramos, Z138, Granta-519, Toledo, SU-DHL4, DOHH-2)
T1 sequence (looked up): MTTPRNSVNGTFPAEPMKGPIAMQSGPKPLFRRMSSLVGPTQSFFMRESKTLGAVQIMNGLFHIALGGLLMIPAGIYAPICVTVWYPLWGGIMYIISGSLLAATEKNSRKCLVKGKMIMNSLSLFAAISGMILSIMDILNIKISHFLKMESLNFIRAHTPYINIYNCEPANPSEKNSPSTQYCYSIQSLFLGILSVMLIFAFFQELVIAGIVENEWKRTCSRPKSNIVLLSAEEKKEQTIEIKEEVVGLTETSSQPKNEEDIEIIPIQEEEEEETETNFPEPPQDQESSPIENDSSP
The experiment in a line: immunofluorescence of co-culture with Ramos cells.

PD-1, sequence (Q15116 25-288 limits assumed): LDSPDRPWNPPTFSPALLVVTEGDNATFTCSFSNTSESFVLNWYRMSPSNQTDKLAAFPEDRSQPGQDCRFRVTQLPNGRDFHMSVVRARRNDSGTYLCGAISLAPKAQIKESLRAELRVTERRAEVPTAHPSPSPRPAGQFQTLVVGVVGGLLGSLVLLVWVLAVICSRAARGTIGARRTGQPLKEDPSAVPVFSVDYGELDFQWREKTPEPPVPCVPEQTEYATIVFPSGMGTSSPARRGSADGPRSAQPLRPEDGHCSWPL

For “RCT-antiCD20: enucleated erythroid cells expressing on their surface a fusion protein of a rituximab CD20 scFv domain, an HA epitope tag and full-length GPA”, in the assay with CD20 (human) [1], the apoptosis of Ramos cells after 48 hours of co-culture worked out at 32%. Further, the Percent cells bound was found to be 43.7% with CD20 (human) [2], 37.1% with CD20 (human) [3], 91.3% in the assay with CD20 (human) [4] and 76% with CD20 (human) [5].

“RCT-antiPD1: enucleated erythroid cells expressing a fusion protein of a pembrolizumab-based anti-PD-1 scFv domain, an epitope tag (HA or Flag) and full-length GPA” yielded an interferon-gamma secretion of PBMC in an antigen recall assay with PD-1 of 3 to 4 fold.

B1: RCT-HA-GPA: control enucleated erythroid cells expressing on their surface the HA epitope tag fused to the N terminus of full-length GPA (other, not shown: small tags and cut ends)
chain: LSTTEVAMHTSTSSSVTKSYISSQTNDTHKRDTYAATPRAHEVSEISVRTVYPPEEETGERVQLAHHFSEPEITLIIFGVMAGVIGTILLISYGIRRLIKKSPSDVKPLPSPDTDVPLSSVEIENPETSDQ
notes: also called HA-GPA control RCT; control RCT-HA-GPA
On to B1, for which, in the assay with CD20, the binding result is “no binding”.

The record behind these values is patent publication US20200345845A1 (RUBIUS THERAPEUTICS, published 2020).
